Assay [1] addresses gp130 (on C2C12 myoblasts) (UniProt Q00560). Briefly: cell-based or functional assay.
The target in assay [2] is T1, gp130 (on C2C12 myoblasts) (UniProt Q00560 23-917, limits assumed).
T1 sequence (looked up): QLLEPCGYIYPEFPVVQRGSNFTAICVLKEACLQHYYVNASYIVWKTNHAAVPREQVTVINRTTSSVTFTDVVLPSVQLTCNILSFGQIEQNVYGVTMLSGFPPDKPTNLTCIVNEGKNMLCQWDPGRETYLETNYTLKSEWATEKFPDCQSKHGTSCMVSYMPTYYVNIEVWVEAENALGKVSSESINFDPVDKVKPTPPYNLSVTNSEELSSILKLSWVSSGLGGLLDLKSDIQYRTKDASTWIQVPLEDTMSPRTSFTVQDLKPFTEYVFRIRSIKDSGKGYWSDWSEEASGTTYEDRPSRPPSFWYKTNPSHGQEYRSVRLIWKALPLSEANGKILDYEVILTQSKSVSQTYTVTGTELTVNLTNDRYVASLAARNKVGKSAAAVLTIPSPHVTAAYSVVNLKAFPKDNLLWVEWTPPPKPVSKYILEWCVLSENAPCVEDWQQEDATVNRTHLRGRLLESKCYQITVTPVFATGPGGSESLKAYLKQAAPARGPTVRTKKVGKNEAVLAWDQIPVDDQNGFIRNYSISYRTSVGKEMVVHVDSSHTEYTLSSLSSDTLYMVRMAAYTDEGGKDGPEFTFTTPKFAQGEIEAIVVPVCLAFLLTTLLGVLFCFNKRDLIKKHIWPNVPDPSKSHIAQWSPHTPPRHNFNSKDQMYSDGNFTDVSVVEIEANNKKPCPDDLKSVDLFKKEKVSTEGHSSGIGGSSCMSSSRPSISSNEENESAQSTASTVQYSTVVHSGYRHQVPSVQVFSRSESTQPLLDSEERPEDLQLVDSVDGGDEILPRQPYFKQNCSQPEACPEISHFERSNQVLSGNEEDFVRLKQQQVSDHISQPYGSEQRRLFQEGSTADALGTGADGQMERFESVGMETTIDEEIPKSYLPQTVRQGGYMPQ
Briefly: cell-based or functional assay.

Substitutions are numbered along the chain they refer to.

B1: FTV381, human CT-1 variant retaining cysteine 105 with cysteine 178 replaced (ligand)
chain: MSRREGSLEDPQTDSSVSLLPHLEAKIRQTHSLAHLLTKYAEQLLQEYVQLQGDPFGLPSFSPPRLPVAGLSAPAPSHAGLPVHERLRLDAAALAALPPLLDAVCRRQAELNPRAPRLLRRLEDAARQARALGAAVEALLAALGAANRGPRAEPPAATASAASATGVFPAKVLGLRVSGLYREWLSRTEGDLGQLLPGGSA
In assay [1], B1 came in with an EC50, Stat3 phosphorylation in C2C12 cells (western blot densitometry) of 2 to 5 ng/mL and a mean EC50, Stat3 phosphorylation in C2C12 cells of 2.5 ng/mL.

B2: FTV380, human CT-1 variant with cysteine 105 mutated to serine (ligand)
chain: B1 chain with C105S, S178C
The molecule B2 gave an EC50, Stat3 phosphorylation in C2C12 cells (western blot densitometry) in assay [1] of 0.35 ng/mL.

B3: wild type human cardiotrophin-1 (CT-1) polypeptide, FTV370 (ligand)
chain: SRREGSLEDPQTDSSVSLLPHLEAKIRQTHSLAHLLTKYAEQLLQEYVQLQGDPFGLPSFSPPRLPVAGLSAPAPSHAGLPVHERLRLDAAALAALPPLLDAVCRRQAELNPRAPRLLRRLEDAARQARALGAAVEALLAALGAANRGPRAEPPAATASAASATGVFPAKVLGLRVCGLYREWLSRTEGDLGQLLPGGSA
Turning to B3, the “EC50, Stat3 phosphorylation in C2C12 cells (western blot densitometry)” value in assay [2] is approximately 1 ng/mL.

B4: FTV384, human CT-1 variant with both natural cysteines replaced with serines and an additional cysteine at its carboxyl terminus (ligand)
chain: MSRREGSLEDPQTDSSVSLLPHLEAKIRQTHSLAHLLTKYAEQLLQEYVQLQGDPFGLPSFSPPRLPVAGLSAPAPSHAGLPVHERLRLDAAALAALPPLLDAVSRRQAELNPRAPRLLRRLEDAARQARALGAAVEALLAALGAANRGPRAEPPAATASAASATGVFPAKVLGLRVSGLYREWLSRTEGDLGQLLPGGSAC
In assay [1], B4 returned an EC50, Stat3 phosphorylation in C2C12 cells (western blot densitometry) of 4 ng/mL and a mean EC50, Stat3 phosphorylation in C2C12 cells of 5 ng/mL.

The record behind these values is patent publication US20140171625A1 (FATE THERAPEUTICS, published 2014).
